In publication PMC9436803:
pKd: −log10 of the molar value.

Tests used:
[1] = target: Human IgG1 Fc (residues 216–447) (human); test: SPR; Biacore T200; IgG1 Fc amine-coupled to a CM5 chip (1 μg/ml); CD16a 0.01-20.48 μM flowed at 10 μl/min; 20 mM MOPS, 100 mM sodium chloride, 1 μM bovine serum albumin, 0.05% P20, pH 7.4; dissociation constants from equilibrium responses; at least five measurements
[2] = target: Human IgG1 Fc (residues 216–447) (human); test: SPR; Biacore T200; IgG1 Fc amine-coupled to a CM5 chip (0.33 μg/ml); CD16a 0.04-5.12 μM flowed at 60 μl/min, contact 30 s, dissociation 250 s; 20 mM MOPS, 100 mM sodium chloride, 0.05% P20, pH 7.4, no bovine serum albumin; two-state kinetic model

Row | Substance | pKd [1] | pKd [2] | ka1 (two-state model, major event) [2] [M⁻¹ s⁻¹] | ka2 (two-state model, minor event) [2] [s⁻¹] | kd1 (two-state model, major event) [2] [s⁻¹] | kd2 (two-state model, minor event) [2] [s⁻¹]
1 | CD16a F158 S164A, lacking the N162 glycan (receptor) | 5.83 | – | – | – | – | –
2 | CD16a V158 S164A with complex-type N-glycans, lacking the N162 glycan (receptor) | 6.64 | 6.96 | 1.4e+06 | 0.0014 | 0.18 | 0.0078
3 | Fc γ receptor IIIa/CD16a F158 allotype with oligomannose (Man5GlcNAc2) N-glycans (from UniProt P08637 17-254) | 5.97 | – | – | – | – | –
4 | Fc γ receptor IIIa/CD16a F158 allotype with truncated (1)GlcNAc N-glycans (from UniProt P08637 17-254) | 6.90 | 7.28 | 1.1e+06 | 0.0018 | 0.079 | 0.005
5 | Fc γ receptor IIIa/CD16a V158 allotype with complex-type N-glycans | 6.57 | 7.12 | 170000 | 0.0061 | 0.025 | 0.0066
6 | Fc γ receptor IIIa/CD16a V158 allotype with oligomannose (Man5GlcNAc2) N-glycans | 7.07 | 7.26 | 710000 | 0.0049 | 0.071 | 0.006
7 | Fc γ receptor IIIa/CD16a V158 allotype with truncated (1)GlcNAc N-glycans | 7.66 | 8.04 | 2.5e+06 | 0.0032 | 0.04 | 0.0047
